T1: human CD20 antigen (human, UniProt P11836 1-297)
T1 construct: whole, on cells; also called human CD20 molecule
T1 sequence (looked up): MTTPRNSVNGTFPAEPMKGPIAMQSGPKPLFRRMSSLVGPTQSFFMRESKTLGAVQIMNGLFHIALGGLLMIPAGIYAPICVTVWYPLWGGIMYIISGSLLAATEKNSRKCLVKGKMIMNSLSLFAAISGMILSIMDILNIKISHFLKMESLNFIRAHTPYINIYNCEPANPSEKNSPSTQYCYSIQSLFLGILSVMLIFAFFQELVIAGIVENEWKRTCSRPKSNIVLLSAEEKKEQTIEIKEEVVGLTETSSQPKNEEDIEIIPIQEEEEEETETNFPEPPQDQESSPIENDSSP


Columns and labels:
human CD20 antigen [1] = molecular target: T1, human CD20 antigen; test: Scatchard analysis on Raji cells, FITC anti-mouse IgG detection
human CD20 antigen [2] = molecular target: T1, human CD20 antigen; test: Scatchard analysis on Raji cells, FITC-labeled Protein A detection
human CD20 antigen [3] = molecular target: T1, human CD20 antigen; test: Scatchard analysis on Raji cells, FITC-labeled Protein A detection; repeated from Table 8

Molecule	Kd (human CD20 antigen [1]) [nM]	Kd (human CD20 antigen [2]) [nM]	Kd (human CD20 antigen [3]) [nM]
humanized antibody 1782 clone ff (antibody, V domains shown, kg1 constructs (C kappa / C gamma1 vector); also called h1782ff; hz1782-ff14) VH: QVQLVQSGAEVKKPGASVKVSCKASGYTFTSYWMHWVKQAPGQGLEWIGYITPSTGYTDYNKKFKDKATLTADRSSSTAYMELSSLRSEDTAVYYCARSGPYFDVWGAGTTVTVSS VL: DILLTQSPATLSVSPGERATLSCRASQNIGTSIHWYQQRPGQSPRLLIKYASESFSGIPSRFSGSGSGTDFTLTINSLQPEDIADYYCQQSNSWPFTFGSGTKLEIK		4.38	4.38
humanized antibody 1782 clone fv (antibody, V domains shown, kg1 constructs; also called h1782fv; hz1782-fv02) VH: QVQLVQSGAELKKPGASVKVSCKASGYTFTSYWMHWVKQAPGQGLEWIGYITPSTGYTDYNKKFKDKATLTADRSSSTAYMELSSLRSEDTAVYYCARSGPYFDVWGAGTTVTVSS VL: DILLTQSPATLSVSPGERATLSCRASQNIGTSIHWYQQRPGQSPRLLIKYASESFSGIPSRFSGSGSGTDFTLTINSLQPEDIADYYCQQSNSWPFTFGSGTKLEIK		6.76	6.76
humanized antibody 1782 clone sf (antibody, V domains shown, kg1 constructs; also called h1782sf; hz1782-sf23) VH: QVQLVQSGAEVKKPGASVKVSCKASGYTFTSYWMHWVKQAPGQGLEWIGYITPSTGYTDYNKKFKDKATLTADRSSSTAYMELSSLRSEDTAVYYCARSGPYFDVWGAGTTVTVSS VL: DILLTQSPATLSLSPGERATLSCRASQNVGTSLHWYQQKPGQSPRLLIKYASERFTGIPSRFSGSGSGTDFTLTISSLEPEDFADYYCQQSNSWPFTFGSGTKLEIK		7.43	7.43

Now from value to molecule:

Kd (human CD20 antigen [1]) [nM]	Kd (human CD20 antigen [2]) [nM]	Kd (human CD20 antigen [3]) [nM]	Molecule
6.79			mouse antibody 2B8
	8.64	8.64	humanized antibody 1782 clone ss (antibody, V domains shown, kg1 constructs; also called h1782ss; hz1782-ss21) VH: QVQLVQSGAEVKKPGASVKVSCKASGYTFTSYWMHWVKQAPGQGLEWIGYITPSTGYTDYNQKFQGKATLTADRSSSTAYMELSSLRSEDTAVYYCARSGPYFDVWGAGTTVTVSS VL: DILLTQSPATLSLSPGERATLSCRASQNVGTSLHWYQQKPGQSPRLLIKYASERFTGIPSRFSGSGSGTDFTLTISSLEPEDFADYYCQQSNSWPFTFGSGTKLEIK

From US20110263825A1 (OSAKA UNIVERSITY, published 2011)
